First the molecules themselves.
B2: Dab2 myosin interacting region (MIR) with C-terminal eGFP (domain or fragment, human, UniProt P98082 675-713, looked up)
chain: SSGTLSAFASYFNSKVGIPQENADHDDFDANQLLNKINE
notes: Dab2, human, a.a; fluorophore joined through a flexible (Gly-Ser-Gly) x 2 repeat; Held on DNA nanotubes or surfaces through a GFP nanobody (a tool); also called Dab2-MIR-GFP; GFP-tagged Dab2 MIR; not shown: eGFP, C-terminal, kept
B3: Cy3-labeled full-length myosin VI (natural protein, human, UniProt Q9UM54 1-1294, looked up)
chain: MEDGKPVWAPHPTDGFQMGNIVDIGPDSLTIEPLNQKGKTFLALINQVFPAEEDSKKDVEDNCSLMYLNEATLLHNIKVRYSKDRIYTYVANILIAVNPYFDIPKIYSSEAIKSYQGKSLGTRPPHVFAIADKAFRDMKVLKMSQSIIVSGESGAGKTENTKFVLRYLTESYGTGQDIDDRIVEANPLLEAFGNAKTVRNNNSSRFGKFVEIHFNEKSSVVGGFVSHYLLEKSRICVQGKEERNYHIFYRLCAGASEDIREKLHLSSPDNFRYLNRGCTRYFANKETDKQILQNRKSPEYLKAGSMKDPLLDDHGDFIRMCTAMKKIGLDDEEKLDLFRVVAGVLHLGNIDFEEAGSTSGGCNLKNKSAQSLEYCAELLGLDQDDLRVSLTTRVMLTTAGGTKGTVIKVPLKVEQANNARDALAKTVYSHLFDHVVNRVNQCFPFETSSYFIGVLDIAGFEYFEHNSFEQFCINYCNEKLQQFFNERILKEEQELYQKEGLGVNEVHYVDNQDCIDLIEAKLVGILDILDEENRLPQPSDQHFTSAVHQKHKDHFRLTIPRKSKLAVHRNIRDDEGFIIRHFAGAVCYETTQFVEKNNDALHMSLESLICESRDKFIRELFESSTNNNKDTKQKAGKLSFISVGNKFKTQLNLLLDKLRSTGASFIRCIKPNLKMTSHHFEGAQILSQLQCSGMVSVLDLMQGGYPSRASFHELYNMYKKYMPDKLARLDPRLFCKALFKALGLNENDYKFGLTKVFFRPGKFAEFDQIMKSDPDHLAELVKRVNHWLTCSRWKKVQWCSLSVIKLKNKIKYRAEACIKMQKTIRMWLCKRRHKPRIDGLVKVGTLKKRLDKFNEVVSVLKDGKPEMNKQIKNLEISIDTLMAKIKSTMMTQEQIQKEYDALVKSSEELLSALQKKKQQEEEAERLRRIQEEMEKERKRREEDEKRRRKEEEERRMKLEMEAKRKQEEEERKKREDDEKRIQAEVEAQLARQKEEESQQQAVLEQERRDRELALRIAQSEAELISDEAQADLALRRSLDSYPVSKNDGTRPKMTPEQMAKEMSEFLSRGPAVLATKAAAGTKKYDLSKWKYAELRDTINTSCDIELLAACREEFHRRLKVYHAWKSKNKKRNTETEQRAPKSVTDYDFAPFLNNSPQQNPAAQIPARQREIEMNRQQRFFRIPFIRPADQYKDPQSKKKGWWYAHFDGPWIARQMELHPDKPPILLVAGKDDMEMCELNLEETGLTRKRGAEILPRQFEEIWERCGGIQYLQNAIESRQARPTYATAMLQSLLK
modifications: Cy3 label
notes: Myosin VI, human, the isoform containing both the long insert (LI) and short insert (SI); probably Myosin VI FL-SNAP (C-terminal SNAP, FLAG and 6X-His tags); Assay buffers held 10 uM calmodulin; The surface gliding assays used dark myosin VI FL-FLAG; also called Cy3-myosin VI; myosin VI FL

Ends that are not written are not given here.

One assay has as its target myosin VI CBD (UniProt Q64331). The settings on record: cited from earlier work.
For assay [1], the target named is T1, Myosin VI cargo-binding domain (CBD) with C-terminal mCerulean (human, UniProt Q9UM54 991-1294, C-terminal mCerulean omitted. Limits are those printed for the Kd FRET assay (CBD 991-1294, LI+SI isoform of 1294 aa); the construct list instead gives 1030-1284.).
T1 chain: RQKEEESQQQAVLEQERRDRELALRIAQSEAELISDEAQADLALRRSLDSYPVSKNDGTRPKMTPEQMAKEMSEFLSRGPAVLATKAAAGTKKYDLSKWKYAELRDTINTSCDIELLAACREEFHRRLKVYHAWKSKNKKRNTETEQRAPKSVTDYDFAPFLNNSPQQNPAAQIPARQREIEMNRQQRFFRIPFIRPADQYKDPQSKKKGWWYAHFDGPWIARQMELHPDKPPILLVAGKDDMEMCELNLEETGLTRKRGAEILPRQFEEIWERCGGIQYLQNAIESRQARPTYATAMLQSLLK
The assay is described as follows: FRET or BRET; bimolecular FRET titration in solution; CBD-mCer held constant at 30 nM, increasing DAB2-MIR-mCit titrated in; excitation 430 nm, cross-excitation spectra subtracted. The settings on record: both partners purified. Background: Bioluminescence resonance energy transfer reports proximity on the nanometre scale.

In assay [2] the target is B3. The assay can be described thus: single-molecule TIRF binding assay; adaptor-GFP held through GFP nanobody-SNAP on DNA nanotubes; Cy3-labeled myosin VI at 50 pM in AB.BSA.Cam; 20 Hz for 3 min; bound and rebinding times fitted to a single-exponential decay. The settings on record: both partners purified.
The target in assay [3] is B2. The description is as above. The settings on record: both partners purified.

Usually Kd stands for the constant that tells how readily two partners part at equilibrium. One may read the koff as the first-order rate constant of dissociation. The low end stands for slow dissociation, the high end for fast dissociation.

myosin VI CBD, sequence (Q64331 1137-1262): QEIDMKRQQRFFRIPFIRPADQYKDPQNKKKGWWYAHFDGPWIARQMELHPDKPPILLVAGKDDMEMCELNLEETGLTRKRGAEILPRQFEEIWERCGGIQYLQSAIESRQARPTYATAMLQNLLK

Take Dab2 MIR (from UniProt P98082): in the assay with myosin VI CBD, the Kd was 500 nM.

B1: Dab2 myosin interacting region (MIR) with C-terminal mCitrine (domain or fragment, human, UniProt P98082 675-713, looked up)
chain: SSGTLSAFASYFNSKVGIPQENADHDDFDANQLLNKINE-mCitrine
notes: Dab2, human, a.a; fluorophore joined through a flexible (Gly-Ser-Gly) x 2 repeat; Cloned into pBiex1; also called DAB2-MIR-mCit; mCit-MIR; not shown: mCitrine, C-terminal, kept
In assay [1], B1 came in with a Kd of roughly 184 nM.
For B2, in assay [2], the koff was determined as 0.91 s⁻¹.
As for B3, the “half-life of the interaction” value in assay [3] was roughly 1.2 s.

(Values after PMC7948593, “Dynamic multimerization of Dab2–Myosin VI complexes regulates cargo processivity while minimizing cortical actin reorganization” (The Journal of Biological Chemistry, 2021).)
